Laboratory results from paper PMC12827578.

Molecular target: CTLA4-FRB*-HA (UniProt P16410)

FLAG-FKBP-USP15 WT (from UniProt P62942 2-108) (enzyme)
CTLA4-FH protein level by Western blot after Dox induction of FF-USP15 WT (18 h) and A/C 500 nM (24 h): > 2 fold
